Experimental data: the DeepSol protein solubility set

experiment: soluble on expression in E. coli; label from the status in PepcDB or PDB records

**Q.** For “GMIGDGIENSPLLTDLAFPYRLLGAGKESRECLFLLHGSGVDETTLVPLARRIAPTATLVAARGRIPQEDGFRWFERIDPTRFEQKSILAETAAFAAFTNEAAKRHGLNLDHATFLGYSNGANLVSSLMLLHPGIVRLAALLRPMPVLDHVPATDLAGIRTLIIAGAADETYGPFVPALVTLLSRHGAEVDARIIPSGHDIGDPDAAIVRQWLAGPIAIAQAD”, which “soluble on expression in E. coli” value is on record?
**A.** soluble

**Q.** For “GMILKTNLFGHTYQFKSITDVLAKANEEKSGDRLAGVAAESAEERVAAKVVLSKMTLGDLRNNPVVPYETDEVTRIIQDQVNDRIHDSIKNWTVEELREWILDHKTTDADIKRVARGLTSEIIAAVTKLMSNLDLIYGAKKIRVIAHANTTIGLPGTFSARLQPNHPTDDPDGILASLMEGLTYGIGDAVIGLNPVDDSTDSVVRLLNKFEEFRSKWDVPTQTCVLAHVKTQMEAMRRGAPTGLVFQSIAGSEKGNTAFGFDGATIEEARQLALQSGAATGPNVMYFETGQGSELSSDAHFGVDQVTMEARCYGFAKKFDPFLVNTVVGFIGPEYLYDSKQVIRAGLEDHFMGKLTGISMGCDVCYTNHMKADQNDVENLSVLLTAAGCNFIMGIPHGDDVMLNYQTTGYHETATLRELFGLKPIKEFDQWMEKMGFSENGKLTSRAGDASIFLK”, which “soluble on expression in E. coli” value is on record?
**A.** soluble

**Q.** With “GMKQSKKIIITCAVTGSIHTPTMSPYLPITPEEIVKEGVAAAEAGAAMLHLHARDPLNGRPSQDPDLFMRFLPQLKERTDAILNITTGGGLGMSLDERLAPARAARPEVASMNMGSLNFNISQAAAKFDTFKFDWERPYLAGTRDFILSNTFSQIERGMTELGASGTRFEFECYDVGHLYNLAHFVDRKLVEPPFFLQCVFGILGGIGADPENLLHMRTIADRLFGQDYYLSVLAAGRHQMPFVTMSAILGGNVRVGLEDSLYSGKGQLATSNAEQVRKIRRIIEELSLDIATPDEARAMLKTKGANETSF” as the sequence, how does the “soluble on expression in E. coli” value read?
**A.** soluble

**Q.** With “GMKYKAAIFDMDGTILDTSADLTSALNYAFEQTGHRHDFTVEDIKNFFGSGVVVAVTRALAYEAGSSRESLVAFGTKDEQIPEAVTQTEVNRVLEVFKPYYADHCQIKTGPFPGILDLMKNLRQKGVKLAVVSNKPNEAVQVLVEELFPGSFDFALGEKSGIRRKPAPDMTSECVKVLGVPRDKCVYIGDSEIDIQTARNSEMDEIAVNWGFRSVPFLQKHGATVIVDTAEKLEEAILGE” as the sequence, how does the “soluble on expression in E. coli” value read?
**A.** soluble

**Q.** Which “soluble on expression in E. coli” value does the source give for “GMNQNKITAGGLEFLVRFAAPTDRLKINDLMIDTARWLKESGSTQWSDILHGFDVHNIEQRIELGEVALFETEAGALAGAMIIRKTPSDWDTDLWEDLAIDKAYYLHRIMVSRAFSGISLSKQMIYFAEKLGIEMSVPFIRLDCIESNETLNQMYVRYGFQFSGKKNGFYLYQKELSQK” here?
**A.** soluble

**Q.** For “GMPQHDKSRLVRIDTGPMINPVAGKPSRPIAGDASFRTVTAFEGGQGKVESGVWESTSGSFQSNTTGYIEYCHIIEGEARLVDPDGTVHAVKAGDAFIMPEGYTGRWEVDRHVKKIYFVTHLA”, which “soluble on expression in E. coli” value is on record?
**A.** soluble

**Q.** Which “soluble on expression in E. coli” value does the source give for “GMPRPKLKSDDEVLEAATVVLKRCGPIEFTLSGVAKEVGLSRAALIQRFTNRDTLLVRMMERGVEQVRHYLNAIPIGAGPQGLWEFLQVLVRSMNTRNDFSVNYLISWYELQVPELRTLAIQRNRAVVEGIRKRLPPGAPAAAELLLHSVIAGATMQWAVDPDGELADHVLAQIAAILCLMFPEHDDFQLLQAHA” here?
**A.** soluble

**Q.** For “GMQATTATPHDIVFLFDCDNTLLDNDHVLADLRAHMMREFGAQNSARYWEIFETLRTELGYADYLGALQRYRLEQPRDTRLLLMSSFLIDYPFASRVYPGALNALRHLGARGPTVILSDGDVVFQPRKIARSGLWDEVEGRVLIYIHKELMLDQVMECYPARHYVMVDDKLRILAAMKKAWGARLTTVFPRQGHYAFDPKEISSHPPADVTVERIGDLVEMDAEWLLAEKR”, which “soluble on expression in E. coli” value is on record?
**A.** soluble

**Q.** Which “soluble on expression in E. coli” value does the source give for “GMQGAGRLMQPRPDSAFVHDVRVTWGDCDPAKIAYTGHLPRFALEAIDAWWSEYHGPGGWYHLELDTNVGTPFVRLEMDFKSPVTPRHILKCHTWPTRLGTKSITFRVDGVQDGVTCFVGAFTCVFTIADQFKSQPAPDHLRALIEPHIPA” here?
**A.** soluble

**Q.** Which “soluble on expression in E. coli” value does the source give for “GMQQSEHFSFGEQTEIEDIGGGLKRQMLGFNHELMAVKIWFDKGAEGYVHAHRHSQVSYVVEGEFHVNVDGVIKVLTAGDSFFVPPHVDHGAVCPTGGILIDTFSPAREDFVEGLS” here?
**A.** soluble

**Q.** For “GMSAQAKNKLEALKAMTTVVADTGDIEAIKQFKPVDATTNPSLILKAAKLANYQHLIEEAIDWALQIKGNDKNSQTTLENVGDKLAVNIGCEVLTSIPGVISTEVDARLSFDTQATVAKARKLIRLYQDAGIDSDRILIKIASTWEGIQAAKILEAEGIHCNLTLLFHFAQAQACAEAGTTLISPFVGRILDWYKANSGQSEYSASEDPGVVSVTEIYNFYKSHGFKTIVMGASFRNTGEIEELAGCDRLTISPELLAQLEADTSPLEQKLFPIKETKDTPELLTEASFRWAMNNDPMAHDKLADGIRRFAADQVTLESMLSKKISQRS”, which “soluble on expression in E. coli” value is on record?
**A.** soluble

**Q.** With “GMSGDILNDIVAACLELERKASSVFKMFAAHAGSDEARRFWETVADETRHHSAVYERLQERGGRENLPIIIYKPAETLEELEMIGKSIDEQVERYTEAPSSEAACLLGFRLQLYLLHPAFASLCRLTRDASGEDLPDIGYGRYLRRFIDGIGSCGLATAETELLGEALFRLWNEARQLAAQSHFDALTGVMTRAGFFKTVGSLAYAAQRSGSNVGIMLIDLDYFKLVGDNYGHQTGDRILQLVAETITSHLRRSDVVGRYDGDEFVVYLSPVEPASLRTVAENLRRSIEEESARMVPVTASIGVAQGILGTDVDGGIEELVRLADECLMQAKYTGKNKVVVK” as the sequence, how does the “soluble on expression in E. coli” value read?
**A.** soluble

**Q.** For “GMSLAPWRGAIAHALHRNRSLVYARYLQLATVQPNGRPANRTLVFRGFLEDTNQLRFITDTRSAKADQIQQQPWAEICWYFPNTREQFRMAGDLTLISSDDSHQDLQPARIAMWQELSDAARLQFGWPYPGKPRIKESGAFEPSPPDPIEPVPNFCLLLLDPVQVDHLELRGEPQNRWLYHRNDQQEWSSEAINP”, which “soluble on expression in E. coli” value is on record?
**A.** soluble

**Q.** Which “soluble on expression in E. coli” value does the source give for “GMSQATAKVNREVQAFLQDLKGKTIDHVFFVACGGSSAIMYPSKYVFDRESKSINSDLYSANEFIQRNPVQLGEKSLVILCSHSGNTPETVKAAAFARGKGALTIAMTFKPESPLAQEAQYVAQYDWGDEALAINTNYGVLYQIVFGTLQVLENNTKFEQAIEGLDQLQAVYEKALKQEADNAKQFAKAHEKESIIYTMASGANYGVAYSYSICILMEMQWIHSHAIHAGEYFHGPFEIIDESVPFIILLGLDETRPLEERALTFSKKYGKKLTVLDAASYDFTAIDDSVKGYLAPLVLNRVLRSYADELAEERNHPLSHRRYMWKVEY” here?
**A.** soluble

**Q.** With “GMSVPQRPHQFVLTLSCPSAAGQVAAVVGLLDRHRCYVDELTVFDDDLSARFFVRCVFHATDDADALRVDALRREFEPIAERFRMQWAIHDVAARPKVLIMVSKLEHCLADLLFRWKMGELKMDIVGIVSNHPDFAPLAAQHGLPFRHFPITADTKAQQEAQWLDVFETSGAELVILARYMQVLSPEASARLANRAINIHHSFLPGFKGAKPYHQAHARGVKLIGATAHFVTDDLDEGPIIEQVVERVDHSYRPEQLLAVGRDVECITLARAVKAFIERRVFLNGDRTVVFQ” as the sequence, how does the “soluble on expression in E. coli” value read?
**A.** soluble

**Q.** With “GMTKLPATSDIYISFFMFTTNLQPDNLDYRRIVVAHIKKLQRFGYSGFEFPIAPGLPENYAQDLENYTNLRHYLDSEGLENVKISTNVGATRTFDPSSNYPEQRQEALEYLKSRVDITAALGGEIMMGPIVIPYGVFPTTDFNEPIWSDELQEHLKVRYANAQPILDKLGEYAEIKKVKLAIEPITHWETPGPNKLSQLIEFLKGVKSKQVGVVIDSAHEILDGEGPEIFKTQVEYLAQQGRLHYVQVSPPDRGALHTSWLPWKSFLTPIVKVYDGPIAVEIFNAIPAFTNSLRLTRRKFWIPDEDPPNQYPNAYDIADEAIKVTRKELKKIGSK” as the sequence, how does the “soluble on expression in E. coli” value read?
**A.** soluble

**Q.** With “GMTQPHQIILLAHGSSDARWCETFEKLAEPTVESIENAAIAYMELAEPSLDTIVNRAKGQGVEQFTVVPLFLAAGRHLRKDVPAMIERLEAEHGVTIRLAEPIGKNPRLGLAIRDVVKEELERSEH” as the sequence, how does the “soluble on expression in E. coli” value read?
**A.** soluble

**Q.** For “GMTQQTDLQSKTNIDPLAMNDSFLAAADALAVDPMFGIPANVREVIARRGNATRLVILGTKGFGAHLMNVRHERPCEVIAAVDDFRYHSGELYYGLPIISTDRFTELATHDRDLVALNTCRYDGPKRFFDQICRTHGIPHLNFEQAVRAFGLQGNVDYRVDDWGADIVRNIPAFQTLAQRLADDYSVQTLYAVLNFHLTCEPEYYHEVERPYSTLYFRSGLLRFSDSEKMVDCGASIGESLAGLIGVTKGKFERVWMIEPDRINLQTLQNVLRRYTDTNFASRITVHGCGAGENTIRVPFNHEGGHGGFVKPADADHEPADLIDVRPIDDIIDDAPTFIKMDIEGSELSALKGARRAISEHKPKLAISAYHRSTDLLDLTNYILSIRPDYQIGLRHHTPDRWDTCLYFY”, which “soluble on expression in E. coli” value is on record?
**A.** soluble

**Q.** Which “soluble on expression in E. coli” value does the source give for “GMTRIASHRGGTLEFGDSTPHGFTATAAMALEEVEFDLHPTADGAIVVHHDPTLDATTDMTGAIVDMTLAKVKTATIRYGAGSHPMTLEELCALYVDSHVNFRCEIKPGVDGLPYEGFVALVIAGLERHSMLERTTFSSFLLASMDELWKATTRPRLWLVSPSVLQQLGPGAVIETAIAHSIHEIGVHIDTADAGLMAQVQAAGLDFGCWAAHTPSQITKALDLGVKVFTTDRPTLAIALRTEHRMEASV” here?
**A.** soluble

**Q.** For “GMVPMTRFDSATEVVRVGENRYAVELDPGYLIGTAMNGGYLMTVLQRSALAESDHLHAVSSSYHFHRPASSGPAEIETRVLKRGRTVTTVQTTLFQEGRTILTGTLATATLDPHAEPRYAAPQPAIPPQHQCRRVDPRQSHLPDDGFLARVDVDFSPDSYAALARERTVTTPELCGYVDLSARDGGSAKDPLAFLPLAVDALPPIVSLLVDWSWAPTVELTWHLRAIPEPGPLAFRSTCALVSDGWFDENVDLWDARGRLVAQSRQLARVGR”, which “soluble on expression in E. coli” value is on record?
**A.** soluble

**Q.** Which “soluble on expression in E. coli” value does the source give for “GNIESIENLQGIRALQQQAPQLLSSGLPNEQQFSLLKQAGVDVVINLMPDSSKDAHPDEGKLVTQAGMDYVYIPVDWQNPKVEDVEAFFAAMDQHKGKDVLVHCLANYRASAFAYLYQLKQGQNPNMAQTMTPWNDELAIYPKWQALLTEVSAKYGH” here?
**A.** soluble

**Q.** Which “soluble on expression in E. coli” value does the source give for “GNNFNWTSVLNMTHNKNKIVSLDGKLDQSIEGSWFIHKVGLPYSTFYVKEYAGVDPQTGKALYYMNTQDANGNYDRTVTTDASAAQAIPYKSVDPKISGGFTNIVNYKWFDLALTLTYSLGGYSFDKTGTYNETDGAKEQNYNLPIYELDRWQKPGDVTDVPRFVLGQAAGPQNSSRYVHSTDHLRVKNLTLGFTLPDQWLTKLGVSKARLYFSGSNLLTWAKWDQYDPEVPVSGEVFCETPPMRTYSFGIEVSF” here?
**A.** not soluble

**Q.** Which “soluble on expression in E. coli” value does the source give for “GNSKKHNLILIGAPGSGKGTQCEFIKKEYGLAHLSTGDMLREAIKNGTKIGLEAKSIIESGNFVGDEIVLGLVKEKFDLGVCVNGFVLDGFPRTIPQAEGLAKILSEIGDSLTSVIYFEIDDSEIIERISGRCTHPASGRIYHVKYNPPKQPGIDDVTGEPLVWRDDDNAEAVKVRLDVFHKQTAPLVKFYEDLGILKRVNAKLPPKEVTEQIKKIL” here?
**A.** soluble

**Q.** For “GNSKSGALSKEILEELQLNTKFTEEELSSWYQSFLKECPSGRITRQEFQTIYSKFFPEADPKAYAQHVFRSFDANSDGTLDFKEYVIALHMTSAGKTNQKLEWAFSLYDVDGNGTISKNEVLEIVTAIFKMISPEDTKHLPEDENTPEKRAEKIWGFFGKKDDDKLTEKEFIEGTLANKEILRLIQFEPQKVKEKLKEKKL”, which “soluble on expression in E. coli” value is on record?
**A.** soluble

**Q.** For “GPGSMAAMASRALISSPSHLLQKFDSCRTIFMCCDIQEKLRNRIPNFQAAVDVSNSMATIHNTLTPKHSTFVVTEQYPKGVGHVAKDITLPEGTPVIEKLQPSMLVPEMMPYIDGDAARGILPVQQAVLWGHETHVCVLQTADELLSRNIRVAVLVDGCASQQQLDHDVAIQEMAGWENLTLTTTISVLLQLSRGDRWIRGALMKVVKPKWADPSRFPSLPADGERPKA”, which “soluble on expression in E. coli” value is on record?
**A.** soluble
